Series [1] addresses T1, His6-CspB (major cold shock protein) (Bacillus subtilis, UniProt P32081 1-67). Put plainly: ITC. A general note: In ITC the heat of successive injections is recorded.
For another series, the target named is CspB (untagged) (Bacillus subtilis, UniProt P32081 1-67). Put plainly: EMSA.
The target of series [2] is T1, His6-CspB (major cold shock protein). Put plainly: EMSA. Background: Mobility shift assays separate free from complexed probe on a gel.
A further series addresses T2, SsoSSB-Cy5 (Sulfolobus solfataricus, UniProt Q97W73 1-148).
T2 sequence: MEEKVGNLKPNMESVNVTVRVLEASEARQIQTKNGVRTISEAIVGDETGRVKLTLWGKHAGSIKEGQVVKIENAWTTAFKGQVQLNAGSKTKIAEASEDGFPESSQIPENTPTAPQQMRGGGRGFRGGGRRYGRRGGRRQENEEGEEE
In words: EMSA.

The target of a further series is T3, SsoSSB (Sulfolobus solfataricus, UniProt Q97W73 1-148).
T3 sequence: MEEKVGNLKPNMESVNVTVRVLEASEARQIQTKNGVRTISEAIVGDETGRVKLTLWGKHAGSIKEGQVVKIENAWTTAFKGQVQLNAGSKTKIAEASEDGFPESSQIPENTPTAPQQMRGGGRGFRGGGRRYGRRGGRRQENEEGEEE
Put plainly: EMSA.

For series [3], the target named is T1, His6-CspB (major cold shock protein). In words: competition EMSA.
The target in series [4] is His6-CspB (major cold shock protein);SsoSSB (Bacillus subtilis;Sulfolobus …, UniProt P32081;Q97W73 1-67;1-148, |). In words: EMSA.
Chain of His6-CspB (major cold shock protein);SsoSSB (P32081 whole entry, one chain of several): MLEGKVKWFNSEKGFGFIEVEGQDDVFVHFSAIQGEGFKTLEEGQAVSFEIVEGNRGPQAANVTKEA

T1 sequence (P32081 whole entry): as the sequence (P32081 whole entry, one chain of several) above
Chain of CspB (untagged) (P32081 whole entry): as the sequence (P32081 whole entry, one chain of several) above

In the case of GTCTTTT (ssDNA) [ITC2 (consensus variant GTCTTTT)], the binding result in series [1] is reported as “binds”.

As for GTCTTTG (ssDNA) [ITC1 (consensus variant GTCTTTG)], the binding result in series [1] is given as “binds”.

For ATCCTACTGATTGGCCAAGGTGCTG (ssDNA) [ONc], the binding result (with CspB (untagged); in series [2]; with SsoSSB-Cy5; with SsoSSB) was “binds” each time.

As for AAAAAAAAAAGCACTTAAAAAAAAA (ssDNA) [ON-Mt], the binding result in series [3] and in series [4] was “binds” in each case.

The record behind these values is PMC1904285.
